Assays:
[1] = biological target: T1, human RAGE-Fc fusion protein (human, UniProt Q15109 23-344); test: ligand competition ELISA, panel 'Blocks hRAGE-Fc interaction with HMGB1'; blocked ligand HMGB1
T1 construct: amino acids 1-344 of human RAGE appended to the Fc domain of human IgG; also called hRAGE-Fc; huRAGE-Fc

[2] = biological target: T2, human RAGE-strep tag fusion protein (human, UniProt Q15109 23-344); test: BIACORE capture assay: hRAGE-SA over antibody captured on anti-human Fc; steady state affinity; average of FC2-FC4
T2 construct: monomeric soluble human RAGE; also called hRAGE-SA; soluble human streptavidin-tagged RAGE
Experimental: (§1) The assays were performed by coating anti-human Fc antibodies onto a CM5 BIA chip with 5000 RU (pH 5.0, 7 min.) in flow cells 1-4. Each antibody was captured by flowing at 2.0 μg/ml over the anti-Fc antibodies in flow cells 2-4 (flow cell 1 was used as a reference).

[3] = biological target: T2, human RAGE-strep tag fusion protein; test: BIACORE capture assay: hRAGE-SA over antibody captured on anti-human Fc; steady state affinity; FC4
Experimental: as §1

[4] = biological target: T3, murine RAGE-strep tag fusion protein (murine, UniProt Q62151 23-343); test: BIACORE capture assay: mRAGE-SA (SA-Mu RAGE) over antibody captured on anti-human Fc; 1:1 Langmuir global fit; FC2
T3 construct: also called mRAGE-strep; mRAGE-SA
T3 chain: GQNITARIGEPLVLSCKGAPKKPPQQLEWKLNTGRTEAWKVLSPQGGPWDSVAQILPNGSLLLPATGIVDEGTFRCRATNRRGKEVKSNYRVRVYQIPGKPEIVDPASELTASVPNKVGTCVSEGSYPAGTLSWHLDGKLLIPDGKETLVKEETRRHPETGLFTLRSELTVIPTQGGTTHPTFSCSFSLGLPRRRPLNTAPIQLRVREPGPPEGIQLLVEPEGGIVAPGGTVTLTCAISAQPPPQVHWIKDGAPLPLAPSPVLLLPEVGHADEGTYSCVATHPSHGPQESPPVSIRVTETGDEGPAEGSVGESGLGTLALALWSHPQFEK
Experimental: as §1

[5] = biological target: T2, human RAGE-strep tag fusion protein; test: BIACORE capture assay: hRAGE-SA over antibody captured on anti-human Fc; 1:1 Langmuir global fit; FC3
Experimental: as §1

[6] = biological target: T2, human RAGE-strep tag fusion protein; test: BIACORE capture assay: hRAGE-SA over antibody captured on anti-human Fc; steady state affinity; FC3
Experimental: as §1

[7] = biological target: T2, human RAGE-strep tag fusion protein; test: BIACORE capture assay: hRAGE-SA over antibody captured on anti-human Fc; 1:1 Langmuir global fit; FC2
Experimental: as §1

[8] = biological target: T2, human RAGE-strep tag fusion protein; test: BIACORE, antibody coated on CM5 chip, hRAGE-SA in flow
rhNCAM-1 = rhNCAM-1 (human, UniProt P13591-1 20-603, limits assumed); test: direct binding ELISA, receptor coated 1 µg/ml, antibody 20 µg/ml
Experimental: (§2) These receptors were chosen because they are cell-surface expressed, like RAGE, and their interaction with ligand is similarly dependent on charge. Tested receptors were rhVCAM-1, rhICAM-1-Fc, rhTLR4 (C-terminal His tag), rhNCAM-1, rhB7-H1-Fc mLox1-Fc, hLox1-Fc and hRAGE-Fc (as a positive control). ELISA plates were coated overnight with 1 μg/ml of the listed receptor proteins.

rhVCAM-1 = biological target: T4, rhVCAM-1 (human, UniProt P19320 25-698); test: as above
T4 sequence (looked up): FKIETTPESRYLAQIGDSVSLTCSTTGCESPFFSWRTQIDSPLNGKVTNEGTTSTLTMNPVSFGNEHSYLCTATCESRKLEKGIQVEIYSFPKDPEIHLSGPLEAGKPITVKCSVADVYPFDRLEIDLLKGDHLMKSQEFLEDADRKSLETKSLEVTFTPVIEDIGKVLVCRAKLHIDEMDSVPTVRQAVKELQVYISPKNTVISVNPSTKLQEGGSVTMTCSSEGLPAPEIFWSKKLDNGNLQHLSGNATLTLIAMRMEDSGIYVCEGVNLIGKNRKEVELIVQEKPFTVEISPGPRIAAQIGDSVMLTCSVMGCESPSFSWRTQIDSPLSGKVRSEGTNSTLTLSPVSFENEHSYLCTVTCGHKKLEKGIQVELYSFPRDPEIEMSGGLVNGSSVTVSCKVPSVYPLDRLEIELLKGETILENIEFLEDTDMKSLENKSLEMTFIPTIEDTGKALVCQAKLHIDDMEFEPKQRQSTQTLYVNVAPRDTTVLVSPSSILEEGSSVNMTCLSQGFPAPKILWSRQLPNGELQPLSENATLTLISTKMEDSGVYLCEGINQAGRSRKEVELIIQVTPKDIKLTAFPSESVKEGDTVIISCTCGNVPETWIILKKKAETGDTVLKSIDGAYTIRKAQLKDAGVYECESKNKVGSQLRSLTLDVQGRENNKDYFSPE
Experimental: as §2

rhB7-H1-Fc = rhB7-H1-Fc (human, UniProt Q9NZQ7 19-239); test: as above
Experimental: as §2

rhICAM-1-Fc = biological target: T5, rhICAM-1-Fc (human, UniProt P05362 28-480); test: as above
T5 construct: also called rhlCAM-1-Fc
Experimental: as §2

hLox1-Fc = hLox1-Fc (human, UniProt P78380 61-273); test: as above
Experimental: as §2

mLox1-Fc = mLox1-Fc (mouse, UniProt Q9EQ09 60-363, limits assumed); test: as above
Experimental: as §2

[9] = biological target: T1, human RAGE-Fc fusion protein; test: as above
Experimental: as §2

rhNCAM-1, sequence (P13591 other isoform, or with tags, fused parts or gaps limits assumed): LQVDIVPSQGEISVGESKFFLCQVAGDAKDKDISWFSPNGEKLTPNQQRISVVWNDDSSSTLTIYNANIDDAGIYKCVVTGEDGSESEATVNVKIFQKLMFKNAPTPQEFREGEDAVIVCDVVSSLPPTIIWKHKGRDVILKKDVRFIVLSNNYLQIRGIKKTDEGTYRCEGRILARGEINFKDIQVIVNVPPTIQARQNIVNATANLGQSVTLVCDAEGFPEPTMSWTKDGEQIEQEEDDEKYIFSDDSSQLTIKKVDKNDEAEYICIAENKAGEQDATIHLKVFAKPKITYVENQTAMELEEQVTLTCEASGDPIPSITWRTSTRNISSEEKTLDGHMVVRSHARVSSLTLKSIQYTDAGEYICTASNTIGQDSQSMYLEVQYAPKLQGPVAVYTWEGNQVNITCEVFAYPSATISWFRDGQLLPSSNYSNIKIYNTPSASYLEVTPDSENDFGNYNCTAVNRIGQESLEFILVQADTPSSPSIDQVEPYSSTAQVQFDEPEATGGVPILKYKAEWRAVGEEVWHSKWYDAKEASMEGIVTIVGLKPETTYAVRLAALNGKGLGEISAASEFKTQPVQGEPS
T5 sequence (P05362 28-480 limits assumed): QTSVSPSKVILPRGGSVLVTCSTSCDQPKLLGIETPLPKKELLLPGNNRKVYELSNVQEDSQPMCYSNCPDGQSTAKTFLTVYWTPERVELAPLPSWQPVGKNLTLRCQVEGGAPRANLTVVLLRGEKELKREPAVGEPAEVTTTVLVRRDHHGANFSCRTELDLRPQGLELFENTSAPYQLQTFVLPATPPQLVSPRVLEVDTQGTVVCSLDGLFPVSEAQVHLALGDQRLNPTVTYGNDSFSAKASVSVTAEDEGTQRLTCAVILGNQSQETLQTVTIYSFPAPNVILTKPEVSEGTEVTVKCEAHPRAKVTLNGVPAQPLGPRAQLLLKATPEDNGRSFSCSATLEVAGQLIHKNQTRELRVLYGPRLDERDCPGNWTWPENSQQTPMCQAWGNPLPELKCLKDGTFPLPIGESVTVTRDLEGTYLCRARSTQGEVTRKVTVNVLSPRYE
rhB7-H1-Fc, sequence (Q9NZQ7 19-239 limits assumed): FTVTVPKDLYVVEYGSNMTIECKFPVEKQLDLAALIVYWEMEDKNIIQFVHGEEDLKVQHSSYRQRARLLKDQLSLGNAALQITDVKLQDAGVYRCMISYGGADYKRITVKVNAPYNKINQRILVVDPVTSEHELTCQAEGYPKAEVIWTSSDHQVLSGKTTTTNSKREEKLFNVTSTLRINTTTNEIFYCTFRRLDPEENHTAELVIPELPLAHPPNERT
mLox1-Fc, sequence (Q9EQ09 60-363 limits assumed): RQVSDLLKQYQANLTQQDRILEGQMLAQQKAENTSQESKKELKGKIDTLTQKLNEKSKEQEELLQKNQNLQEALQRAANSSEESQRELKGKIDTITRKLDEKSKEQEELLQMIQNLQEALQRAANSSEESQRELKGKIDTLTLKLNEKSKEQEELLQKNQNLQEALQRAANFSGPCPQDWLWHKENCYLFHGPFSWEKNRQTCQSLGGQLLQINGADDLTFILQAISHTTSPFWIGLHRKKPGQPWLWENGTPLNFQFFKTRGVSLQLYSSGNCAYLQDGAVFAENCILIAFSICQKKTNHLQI

IC50 (read off the curve) [1]: ~0.1 µg/mL
Kd [2]: 11 nM
Kd [3]: 11 nM
Kd [4]: 1.9 nM
koff [4]: 0.0042 s⁻¹
kon [4]: 2.2e+06 M⁻¹ s⁻¹
Kd [5]: 7.33 nM
koff [5]: 0.0271 s⁻¹
kon [5]: 3.7e+06 M⁻¹ s⁻¹
Kd [6]: 11 nM
Kd [7]: 8.2 nM
koff [7]: 0.0281 s⁻¹
kon [7]: 3.42e+06 M⁻¹ s⁻¹
Kd [8]: ~5.5 nM
OD450 (rhNCAM-1): 0.006
OD450 (rhVCAM-1): 0.004
OD450 (rhB7-H1-Fc): 0.003
OD450 (rhICAM-1-Fc): 0.004
OD450 (hLox1-Fc): 0.017
OD450 (mLox1-Fc): 0.01
OD450 [9]: 3.8
B1: chimeric XT-M4 (antibody, V domains shown)
VH: EVQLVESGGGLVQPGRSLKLSCVVSGFTFNNYWMTWIRQTPGKGLEWVASINNSGDNTYYPDSVKDRFTISRDNAKSTLYLQMNSLRSEDTATYYCTRGGDITTGFDYWGQGVMVTVSS
VL: DIQMTQSPSSMSVSLGDTITITCRASQDVGIYVNWFQQKPGKSPRRMIYRATNLADGVPSRFSGSRSGSIYSLTISSLESEDVADYHCLEFDEHPLTFGSGTKVEIK
modifications: N-linked oligosaccharide at Asn52 (CDR2) on part of the heavy chains
notes: rat XT-M4 variable regions fused to human kappa light chain and human IgG1 heavy chain constant regions; L234A and G237A in the human IgG1 Fc region; also called chimeric antibody XT-M4; XT-M4-A-1

— patent US20070253950A1 (Pfizer, published 2007)
